± gives the uncertainty stated by the source.
Test: self-splicing fitness, log relative to wild type (ln ratio); higher = more splicing; Tetrahymena group I intron in knt gene, E. coli kanamycin selection, DiMSum; sequences stand for … in CUCUCU…GGAGGGAAAAGUUAUCAGGCAUGCACCUGGUAGCUAGUCUUUAAACCAAUAGAUUGCAUCGGUUUAAAAGGCAAGACCGUCAAAUUGCGGGAAAGGGGUCAACAGCCGUUCAGUACCAAGUCUCAGGGGAAACUUUGAGAUGGCCUUGCAAAGGGUAUGGUAAUAAGCUGACGGACAUGGUCCUAACCACGCAGCCAAGUCCUAAGUCAACAGAUCUUCUGUUGAUAUGGAUGCAGUUCACAGACUAAAUGUCGGUCGGGGAAGAUGUAUUCUUCUCAUAAGAUAUAGUCGGACCUCUCCUUAAUGGGAGCUAGCGGAUGAAGUGAUGCAACACUGGAGCCGCUGGGAACUAAUUUGUAUGCGAAAGUAUAUUGAUUAGUUUUGGAGUACUCGUGGUCG
Method in brief: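 A randomised library covering all eight P1ex-region intron nucleotides was built with the intron in the knt kanamycin-resistance gene on pET-22b(+) and held in E. coli BL21(DE3). Cells were grown overnight at 37°C or 30°C on LB agar, with or without 25 μg/mL kanamycin, plus 100 μg/mL carbenicillin, 50 μM IPTG and 0.2% rhamnose, and pooled colonies were amplicon-sequenced on an Illumina HiSeq 2500. DiMSum fitness is the error-weighted combination of wild-type-normalised replicate fold changes, kanamycin versus none.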

Row | Sequence | self-splicing fitness (ln) (30 °C) | self-splicing fitness (ln) (37 °C)
1 | AGCAAGCAAUAUUACGAACC | -0.794 ± 0.12 | 0.286 ± 0.2
2 | AGCAAGCAAUAUUACGAAGC | -3.28 ± 0.31 | 
3 | AGCAAGCAAUAUUACGAAUG | -3.77 ± 0.18 | -1.71 ± 0.13
4 | AGCAAGCAAUAUUACGACAC | -1.21 ± 0.085 | -0.583 ± 0.11
5 | AGCAAGCAAUAUUACGACCU | 0.278 ± 0.082 | 0.39 ± 0.11
6 | AGCAAGCAAUAUUACGACGG | -2.35 ± 0.16 | -0.575 ± 0.13
7 | AGCAAGCAAUAUUACGAGUA | -1.67 ± 0.12 | -0.688 ± 0.12
8 | AGCAAGCAAUAUUACGAUCU | -0.189 ± 0.052 | 0.631 ± 0.077
9 | AGCAAGCAAUAUUACGAUGA | -1.33 ± 0.085 | -0.569 ± 0.088
10 | AGCAAGCAAUAUUACGCCAG | -2.09 ± 0.2 | -2.65 ± 0.44
11 | AGCAAGCAAUAUUACGCCGU | -1.05 ± 0.11 | -0.892 ± 0.11
12 | AGCAAGCAAUAUUACGCGUA | -1.83 ± 0.083 | -0.167 ± 0.085
13 | AGCAAGCAAUAUUACGCGUC | -3.61 ± 0.15 | -3.06 ± 0.24
14 | AGCAAGCAAUAUUACGCUAA | -2.93 ± 0.2 | -1.69 ± 0.16
15 | AGCAAGCAAUAUUACGCUAC | -3.82 ± 0.29 | -3.16 ± 0.4
16 | AGCAAGCAAUAUUACGGAAC | -3.49 ± 0.43 | -2.04 ± 0.18
17 | AGCAAGCAAUAUUACGGAUC | -2.73 ± 0.17 | -1.08 ± 0.16
18 | AGCAAGCAAUAUUACGGUAA | -2.53 ± 0.17 | -1.38 ± 0.12
19 | AGCAAGCAAUAUUACGUAGC | -3.34 ± 0.18 | -2.45 ± 0.19
20 | AGCAAGCAAUAUUACGUGUA | -2.19 ± 0.07 | -1.49 ± 0.072
21 | AGCCAGCAAUAUUACGAAGU | -4.11 ± 0.22 | -1.75 ± 0.12
22 | AGCCAGCAAUAUUACGAAUG |  | -2.45 ± 0.28
23 | AGCCAGCAAUAUUACGACUA | -1.99 ± 0.14 | -1.5 ± 0.14
24 | AGCCAGCAAUAUUACGAGUG | -3.63 ± 0.2 | -2.13 ± 0.14
25 | AGCCAGCAAUAUUACGAUAC | -3.73 ± 0.14 | -3.14 ± 0.14
26 | AGCCAGCAAUAUUACGAUGA | -3.75 ± 0.29 | -2.35 ± 0.24

Row | Sequence | self-splicing fitness (ln) (30 °C) | self-splicing fitness (ln) (37 °C)
27 | AGCCAGCAAUAUUACGAUGG | -4.33 ± 0.26 | -2.28 ± 0.19
28 | AGCCAGCAAUAUUACGCAAU | -3.25 ± 0.2 | -1.35 ± 0.17
29 | AGCCAGCAAUAUUACGCCAA | -3.36 ± 0.19 | -1.75 ± 0.17
30 | AGCCAGCAAUAUUACGCCUA | -2.14 ± 0.25 | -1.07 ± 0.23
31 | AGCCAGCAAUAUUACGCCUU | -1.59 ± 0.16 | -0.556 ± 0.2
32 | AGCCAGCAAUAUUACGCGCA | -0.445 ± 0.061 | 0.255 ± 0.074
33 | AGCCAGCAAUAUUACGCGCG | -1.15 ± 0.075 | -0.281 ± 0.076
34 | AGCCAGCAAUAUUACGCGGG | -3.29 ± 0.19 | -2.91 ± 0.28
35 | AGCCAGCAAUAUUACGGAGC | -2.39 ± 0.1 | -1.83 ± 0.11
36 | AGCCAGCAAUAUUACGGCGG | -2 ± 0.1 | -1.1 ± 0.15
37 | AGCCAGCAAUAUUACGGGCA | -1.78 ± 0.14 | -0.459 ± 0.13
38 | AGCCAGCAAUAUUACGGGUU | -3.25 ± 0.15 | -3.81 ± 0.25
39 | AGCCAGCAAUAUUACGGUAA | -1.23 ± 0.069 | -0.323 ± 0.074
40 | AGCCAGCAAUAUUACGGUUC | -4.47 ± 0.19 | -3.66 ± 0.27
41 | AGCCAGCAAUAUUACGGUUU | -3.43 ± 0.2 | -2.04 ± 0.18
42 | AGCCAGCAAUAUUACGUACC | -2.95 ± 0.25 | -0.263 ± 0.13
43 | AGCCAGCAAUAUUACGUACG | -3.04 ± 0.17 | -2.65 ± 0.17
44 | AGCCAGCAAUAUUACGUCUG | -4.62 ± 0.25 | -1.94 ± 0.17
45 | AGCCAGCAAUAUUACGUGAG | -2.79 ± 0.1 | -0.902 ± 0.11
46 | AGCCAGCAAUAUUACGUUUG | -3.47 ± 0.13 | -3.22 ± 0.23
47 | AGCGAGCAAUAUUACGAAAU | -2.79 ± 0.23 | -2.39 ± 0.42
48 | AGCGAGCAAUAUUACGACAC | -1.34 ± 0.34 | 
49 | AGCGAGCAAUAUUACGAGAU | -4.2 ± 0.3 | -2.15 ± 0.19
50 | AGCGAGCAAUAUUACGAUGA | -2.57 ± 0.44 | 
51 | AGCGAGCAAUAUUACGCCAU | -4.12 ± 0.46 | -1.58 ± 0.18
52 | AGCGAGCAAUAUUACGCCCU | -1.34 ± 0.35 | -0.0906 ± 0.22

Row | Sequence | self-splicing fitness (ln) (30 °C) | self-splicing fitness (ln) (37 °C)
53 | AGCGAGCAAUAUUACGCCUA | -1.67 ± 0.18 | -1.89 ± 0.2
54 | AGCGAGCAAUAUUACGCCUC | -1.82 ± 0.3 | 
55 | AGCGAGCAAUAUUACGCGCU | -1.6 ± 0.23 | 
56 | AGCGAGCAAUAUUACGCGUU | -3.19 ± 0.27 | -2.79 ± 0.32
57 | AGCGAGCAAUAUUACGCUUG | -3.61 ± 0.15 | -1.69 ± 0.15
58 | AGCGAGCAAUAUUACGGAGA | -2.52 ± 0.26 | -2.14 ± 0.3
59 | AGCGAGCAAUAUUACGGGCA | -0.63 ± 0.061 | -0.562 ± 0.075
60 | AGCGAGCAAUAUUACGGGGU | -3.54 ± 0.22 | -1.59 ± 0.19
61 | AGCGAGCAAUAUUACGGUCU | -1.42 ± 0.1 | -0.715 ± 0.15
62 | AGCGAGCAAUAUUACGGUUC | -2.18 ± 0.24 | -2.32 ± 0.3
63 | AGCGAGCAAUAUUACGUACC | -0.987 ± 0.18 | -0.589 ± 0.19
64 | AGCGAGCAAUAUUACGUCAU | -3.13 ± 0.21 | -1.88 ± 0.2
65 | AGCGAGCAAUAUUACGUCGG | -3.45 ± 0.32 | -2.08 ± 0.25
66 | AGCGAGCAAUAUUACGUGCA | -1.78 ± 0.14 | -1.21 ± 0.14
67 | AGCUAGCAAUAUUACGAACC | -0.602 ± 0.14 | -0.082 ± 0.14
68 | AGCUAGCAAUAUUACGAACG | -0.938 ± 0.19 | -1.61 ± 0.18
69 | AGCUAGCAAUAUUACGAAUC |  | -1.56 ± 0.28
70 | AGCUAGCAAUAUUACGAGGU | -2.73 ± 0.14 | -1.31 ± 0.13
71 | AGCUAGCAAUAUUACGAUGU | -1.79 ± 0.096 | -0.235 ± 0.13
72 | AGCUAGCAAUAUUACGCCAG | -3.78 ± 0.36 | -2.27 ± 0.35
73 | AGCUAGCAAUAUUACGCCCU | -0.747 ± 0.13 | 0.627 ± 0.15
74 | AGCUAGCAAUAUUACGCCGA | -1.4 ± 0.4 | 
75 | AGCUAGCAAUAUUACGCGCA | -0.216 ± 0.095 | 0.0846 ± 0.13
76 | AGCUAGCAAUAUUACGCGGC | -3.24 ± 0.32 | -1.99 ± 0.38
77 | AGCUAGCAAUAUUACGCUAA | -1.97 ± 0.18 | -1.21 ± 0.12
78 | AGCUAGCAAUAUUACGCUAG | -3.02 ± 0.21 | -2.23 ± 0.22
